Laboratory results: the DeepSol protein solubility set

experiment: soluble on expression in E. coli; label from the status in PepcDB or PDB records

Soluble on expression in E. coli, not soluble:
MGSDKIHHHHHHMSRAPDTWILTADCPSMLGTVDVVTRYLFEQRCYVTEHHSFDDRQSGRFFIRVEFRQPDDFDEAGFRAGLAERSEAFGMAFELTAPNHRPKVVIMVSKADHCLNDLLYRQRIGQLGMDVVAVVSNHPDLEPLAHWHKIPYYHFALDPKDKPGQERKVLQVIEETGAELVILARYMQVLSPELCRRLDGWAINIHHSLLPGFKGAKPYHQAYNKGVKMVGATAHYINNDLDEGPIIAQGVEVVDHSHYPEDLIAKGRDIECLTLARAVGYHIERRVFLNANRTVVL, MGSDKIHHHHHHMSREINAGGHHFLYGGISRGVHYWDNKDFSEQSLRLSFGHQNRSVTRSFGTVPFVGQNLLGGSRYNFAGGFNADFSRRLGERWRLTLNAGNMWKHYQEDRTAARYGSHMPLAGATLMYSAPKDRLLYGGADWPHDMTKEAEQASVRKGLRVGAVKTFDGGLGLRANLRYTRRTFDAPGTIVYRFPRKDHEYQANLSLRHDKISWKGFTPQLNFRYLKIGSNMKSFYTRKNTQIFMSVEKDFK, MGSDKIHHHHHHMSRSPFQTFVWRSEIFECQSTDIQRFYSLLAIETERLGLGSKILGQAGHHPLYLLQSPGQKAGLPNLLISAGFHGEESAGPWGLLHFLSQLDGELFKRVNLSVLPLVNPTGFAKGHRFNELGENPNRGFFIENGKAKPGADTSAEGRILLEHAHLLQVASRDGILTCHEDVLMTDTYVYTFEPSQAPGRFSHSLRDALGQYFPIAADGDVDNCPVRSGVIFNHFDTSFESFLVRSGARVGCCSETPGQQPLDQRILANAAAMNTFVNMLAPELS, MGSDKIHHHHHHMSSDIHLAFAHPSERSAATARPGALDRISLRDHIVEVEIGAFQQERGTTQRVCFNVVVEIAPLPADLDDDVDRILSYDKVTEAIAHELARERLALLETLAERVAERILWEPQAVRAFVRIEKLDRGPGKLGVEIVRSADQVSHEADEDVKPHPRLMFLSNAAIDSDNLTGWIDQMECRERPLILCVGAHDLALPQTGHKWTQRRIDLLAIEQNAWRLAARDSRCKVVETRTELDWAMKNGQICVWAPSKIVLDAVEGPSEPPSNAVALAAWFASTFEAEEMIVIGAELPENPGVPLRAHAEEQHTL, MGSDKIHHHHHHMSSHQPAPPARPTNKVFIIGLPRTGTTSVSVALLEMGLRVAHQAFTKQAVILADAISDAPCFSDYRQLHSLYPDAKFIYLDRPLDAWVPSMQMLLSRMLVHLDKERGRFHPLLKRSFGHTFGIYRVADPMDAEHLKTCYQVHKQQVFDYFHQDQGLAQQFLSLQLDDPQSLPRLANFIGLDAQVDSPQLAFPHLNRGRNVASWDEYKHELKISSNLAGPENRKYFNYKI, MGSDKIHHHHHHMSSLINDIHAEDVANYLNRNREFFHVFPNLLNELSIPHPKSGHEVSLLERQVFQLREQRDSLQVEVDTLKDIAGENGALLHKVYDLSYALLAAESEQEAVNVVYDVMHDVFTVEEVTIISWEVPKSSVHGVNQLGISQAWSQSLKETLQPGKPVCGLLEDSWQKGLFHTDKAMQSVCVIPLGQQRVWGALALGATTDRFSPELGTYFLKVMGQMVTARLQRLF, MGSDKIHHHHHHMSSNALYTDLSGYYDLMCSDINYQQQSASIHRLHQFLGNNGKQHLDLACGTGPHVRHFIDLGYQCSGLDINQPMLDMAMRRCPEAQFNLQDMTAFYLEERVDLITCFLYSIHYSACIERLKSCIASVHSALNDGGLFCFNTVDKHRIDNTASVKHFAEFDGSHFAFESGWHYSGQGEKQSLKLSIAKSRLPFTEVSASPLPVSDMKGLGSLEAGLHAAGLQEVGLQELHSIEQWQDQHAMVATSFTELQELLAPYFEVHVFEHDYERIVPWDLASGNALFVCVKI, MGSDKIHHHHHHMSSPSFNVEEHKKMLQSYFNGQGFQRWASIYGDDKLSTVRSTVRQGHAVMMDKAFEWLQKTGLPKGSKILDAGCGTGLFTIRLAKSGYRVKAADIAEQMVNKTREDAEKAGVAGNVEFEVNSIESVSGTFDAVVCFDVLIHYPAEGFAHAFSNLAGLTKGPIIFTYAPFNNILAFQHWIGGFFPKKERRTTIQMIKDKEMQRVLSELGLKIVSQQKISFGFYHTMLMHVARR
